Measured values: publication doi:10.1101/2020.03.03.974444

Target: myc-tagged human Patched-1 (Ptch1-1B-myc) (human) (UniProt Q13635)
Test: co-IP

Chain of UniProt Q13635 (Q13635 whole entry): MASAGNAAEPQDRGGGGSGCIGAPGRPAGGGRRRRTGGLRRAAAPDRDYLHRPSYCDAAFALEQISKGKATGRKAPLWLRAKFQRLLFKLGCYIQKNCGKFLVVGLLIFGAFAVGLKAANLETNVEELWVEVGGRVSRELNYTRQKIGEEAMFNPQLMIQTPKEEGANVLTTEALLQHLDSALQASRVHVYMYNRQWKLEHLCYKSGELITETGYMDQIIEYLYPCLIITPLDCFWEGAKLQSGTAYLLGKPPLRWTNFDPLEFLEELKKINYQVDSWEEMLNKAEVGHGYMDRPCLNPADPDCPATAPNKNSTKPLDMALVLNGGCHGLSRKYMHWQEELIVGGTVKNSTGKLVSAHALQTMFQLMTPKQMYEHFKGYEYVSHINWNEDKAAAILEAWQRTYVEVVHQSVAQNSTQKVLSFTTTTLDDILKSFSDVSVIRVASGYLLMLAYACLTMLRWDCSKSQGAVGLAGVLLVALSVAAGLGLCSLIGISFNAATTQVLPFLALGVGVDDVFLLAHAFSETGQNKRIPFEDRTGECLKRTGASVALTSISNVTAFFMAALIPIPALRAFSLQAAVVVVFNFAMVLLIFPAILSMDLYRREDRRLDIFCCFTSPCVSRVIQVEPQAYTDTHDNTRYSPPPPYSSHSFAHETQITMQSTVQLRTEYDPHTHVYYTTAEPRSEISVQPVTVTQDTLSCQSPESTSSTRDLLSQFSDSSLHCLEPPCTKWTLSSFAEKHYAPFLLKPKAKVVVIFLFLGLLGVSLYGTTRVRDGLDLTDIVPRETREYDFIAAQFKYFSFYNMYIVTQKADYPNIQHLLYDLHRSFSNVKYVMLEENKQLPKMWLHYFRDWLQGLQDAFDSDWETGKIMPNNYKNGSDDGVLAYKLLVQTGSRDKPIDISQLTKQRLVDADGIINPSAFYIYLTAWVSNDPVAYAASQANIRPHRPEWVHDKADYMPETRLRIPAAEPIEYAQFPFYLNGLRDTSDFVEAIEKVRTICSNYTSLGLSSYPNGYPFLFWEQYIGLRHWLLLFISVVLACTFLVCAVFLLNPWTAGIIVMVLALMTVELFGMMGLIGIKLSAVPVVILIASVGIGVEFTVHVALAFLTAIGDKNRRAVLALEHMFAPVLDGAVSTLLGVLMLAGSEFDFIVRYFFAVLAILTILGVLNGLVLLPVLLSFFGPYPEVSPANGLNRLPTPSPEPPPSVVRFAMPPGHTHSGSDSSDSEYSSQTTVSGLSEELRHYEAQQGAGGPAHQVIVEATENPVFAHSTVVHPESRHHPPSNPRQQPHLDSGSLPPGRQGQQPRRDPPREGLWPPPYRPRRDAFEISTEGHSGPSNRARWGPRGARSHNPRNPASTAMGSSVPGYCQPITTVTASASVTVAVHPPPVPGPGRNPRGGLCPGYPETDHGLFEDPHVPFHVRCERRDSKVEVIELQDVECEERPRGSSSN

N-terminal Sonic Hedgehog (N-Shh) (from UniProt Q62226 25-437) (domain or fragment)
percent reduction of FL-Dhh binding to Ptch1: 70 to 80%
